Test results reported in the RNAGym collection of RNA variant scans (doi:10.1073/pnas.2313332121).
Variants at the floor of the assay were thinned out.

B1: TPR 5TU (parent)
chain: GGAUCUUCUCGAUCUAACAAAAAAGACAAAUCUGCCACAAAGCUUGAGAGCAUCUUCGGAUGCAGAGGCGGCAGCCUUCGGUGGCGCGAUAGCGCCAACGUUCUCAACUAUGACACGCAAAACGCGUGCUCCGUUGAAUGGAGUUUAUCAUG

Variants of: B1
Test: polymerase ribozyme fitness, log enrichment relative to wild type (log ratio); higher = more active; in vitro selection for triplet polymerase activity
Method in brief: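 One round of in vitro selection, in triplicate, was applied to PCR-built, transcribed mutant libraries of each subunit of a heterodimeric triplet polymerase ribozyme. The steps were annealing with a biotinylated primer, partner subunit and triplets, incubation frozen at −7 °C, gel excision of extended constructs, streptavidin-bead capture and RT-PCR. Fitness is the logarithm, base 2, of genotype enrichment over wild-type enrichment from inverse-variance-weighted replicate averages of Illumina-sequenced inputs and outputs, keeping genotypes with ≥10 input reads and ≥1 read per output.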

| Variant | polymerase ribozyme fitness (log ratio) |
| --- | --- |
| U33G A73G | -0.513 |
| U45A C96U | -2.86 |
| A30U A66U C85U A106C | ≤ -4.2 |
| A23C C93U G141U | ≤ -4.2 |
| C54U G84A C105A | -0.565 |
| A66G U90G C93G | ≤ -4.2 |
| A89U A150U | 1.51 |
| A91C C108G A120U | ≤ -4.2 |
| A19C A52G G92C C96A A147C | -3.53 |
| G46C G59A U82A C85G A110C A113U G126U G128A | ≤ -4.2 |
| A12C C96U | -0.42 |
| A28C U151A | ≤ -4.2 |
| G50A G59A C96U A122U A142G A147U | -3.67 |
| C96U A97G G124A C149A | -4.08 |
| A47G C123U C129G | -3.23 |
| A20U G46C U56A C96U U135C A147G | ≤ -4.2 |
| U77A C93A A113C | ≤ -4.2 |
| C76U G86U | -2.16 |
| G94C G126A | 0.311 |
| C32G U55G C79U C96G | -4.01 |
| C5G U9C A16C A28G A30U C32G C35A G59U G92U C105U | ≤ -4.2 |
| C87A C93U C95U G100A C116U A121G C129A U130G | ≤ -4.2 |
| C99A C116U | -0.602 |
| C93U C125G | -1.79 |

| Variant | polymerase ribozyme fitness (log ratio) |
| --- | --- |
| C38U G86A U148C | -3.22 |
| A26G A52C G59C A64C | ≤ -4.2 |
| A21U C38A G81A | 0.0427 |
| A41C A89U C95U G124A C125G | -1.75 |
| U15G A20U A37G U45A G50C G70U C95U C118G G141C A147C G152A | ≤ -4.2 |
| A22C U33C G88A A97C C131G | ≤ -4.2 |
| G25A A64G G88A | ≤ -4.2 |
| U77C | -2.04 |
| A17G A20C A30G G46A G59U G67C G68U G70U C96G | ≤ -4.2 |
| C8G G71A G74A C79U C87A C116A | ≤ -4.2 |
| A30G G48A C54U C85U | ≤ -4.2 |
| A41C C63G G92U | -0.619 |
| A29U G50A C116U C129G | ≤ -4.2 |
| C14G A23G A73G G84U A122U | ≤ -4.2 |
| C27U C63G C95U C96U C99G | -3.33 |
| A52C G80C | ≤ -4.2 |
| A41C U53C C125G U144A | -2.53 |
| C54A A66G A91G C95G G141A G143U U146C | ≤ -4.2 |
| A66C C85G | -4.16 |
| A20C A49C A52C C57U C76A G88A A106G G126C U145G | ≤ -4.2 |
| A60C U82G G86A U146G | -3.33 |
| G59U C93U C114G | -3.92 |
| C87U A120G A121C A147U U148C | -2.38 |
| A19C C54A U78G C96U G141C | ≤ -4.2 |

| Variant | polymerase ribozyme fitness (log ratio) |
| --- | --- |
| A21U G46U U55A C85G A106G C116A | -1.91 |
| C35U C75G U127C | ≤ -4.2 |
| C27G G48C G80A G81A A113G C118A C132U G136C A150G | ≤ -4.2 |
| A12U A40U C85U U145C | -1.21 |
| C5G U144G | 0.355 |
| A60U C131A | -2.81 |
| C35U A115U | -1.54 |
| G86U G141A U146C | -1.62 |
| C32U G65C U77A C87G U90C C114A U151A | ≤ -4.2 |
| C8G C14A A39C G74U G143U | ≤ -4.2 |
| C95U A150G | -2.25 |
| C54U C93U | -1.99 |
| A40C C75U C116U A119C | -1.75 |
| A16G C32G A41U G80C C99U A110U U127A G143A | ≤ -4.2 |
| C85A A89G U146C | -2.83 |
| A28U A37C C87A G117A G140C | ≤ -4.2 |
| A40U U53C | 0.103 |
| C51G C125U U144C | -4.07 |
| A22C C27G C76U C96G G140U | ≤ -4.2 |
| G88U U130A A147C | ≤ -4.2 |
| G92C C116G | -1.52 |
| A17C C18A C57A C95U C99G A113G G133A G152U | -4.06 |
| C38U C87U C95U U144A | -1.21 |
| A37G G42C G88U A115G | ≤ -4.2 |

| Variant | polymerase ribozyme fitness (log ratio) |
| --- | --- |
| A49C C96A | -3.04 |
| A37U G84A U102C C123G | -4.19 |
| A24U G94A | 0.123 |
| U61A U78A C95U C123A U146A | ≤ -4.2 |
| G84U G117A | -2 |
| A24U C125A | -0.572 |
| C10U U55A | -2.91 |
| C96G U144C | -0.123 |
| A49U U61A C87A G140C | ≤ -4.2 |
| U15C | 0.917 |
| A26C U55A C75A G80C G94A C105A | ≤ -4.2 |
| U61G U77G G92A C96A G143U | ≤ -4.2 |
| A17C A19U G58A A97G U102G A119G | -3.63 |
| A28G G42U | ≤ -4.2 |
| A107U A120G C132A A147C | ≤ -4.2 |
| A12U U31C C32U A40U C57G A73G C75A G88A G152A | ≤ -4.2 |
| A39U G117U | -1.04 |
| U7A U31G G81C G84U C95U A107G G128U A137G | ≤ -4.2 |
| G68C G83U G133U A137C | ≤ -4.2 |
| C38G A73U C95A U146G | -2.85 |
| C35U G88A A115C A119G | -3.86 |
| U55G C75U | -0.769 |
| G84A A89G G100C A115G C125U | ≤ -4.2 |
| A20U A29G G48C A49C G117A U134G A137C U139A | ≤ -4.2 |

| Variant | polymerase ribozyme fitness (log ratio) |
| --- | --- |
| A29U G81U G92C C116G G140A U148C | ≤ -4.2 |
| G42C U90C U109A | ≤ -4.2 |
| C32G A37C G140C | ≤ -4.2 |
| U4C G11U G42C G48A U53G C57G G81U C85U | ≤ -4.2 |
| A73U G92U G141A U145A | -3.24 |
| G86U U102G A150U | -3.59 |
| C27A G50C G80A C95U | ≤ -4.2 |
| A3U A52C G86U A119U G141U | -3.78 |
| G50U G94A | -0.00242 |
| A37C G50U G59U G86U | -2.65 |
| C14A A17C C36A U44A U45A C54A C85G G88U C103G A110C | ≤ -4.2 |
| A16U C38U A60C G80U A97G | ≤ -4.2 |
| C54G C87U A106U A137U G140U A142C | ≤ -4.2 |
| A30G A91U A137G G141U | ≤ -4.2 |
| U61G G86A | -2.45 |
| G25C A49C C51U U53G C54A C116U G141A G152U | ≤ -4.2 |
| A52G A60U C85A G94U C96G | -3.93 |
| A19U A22C A40C C43G A66C C95A G141U G152A | -3.6 |
| G58U C123U | 0.837 |
| U55G G83U | -0.389 |
| C85U G124U | -0.801 |
| A21G C85U C96U C105U A106C A138G | ≤ -4.2 |
| A23G A52G C57U C95A C96G U102G A107G G141A | ≤ -4.2 |
| U15A A29C C38U A119U G126A U144A C149G | ≤ -4.2 |

| Variant | polymerase ribozyme fitness (log ratio) |
| --- | --- |
| C8A A73U G83A C93U A138C U145C | ≤ -4.2 |
| G83A U90G G94C A110G G152U | ≤ -4.2 |
| C36A A49C G71U G92A A107G U145C | ≤ -4.2 |
| C54A G58A A91U C95A | ≤ -4.2 |
| A39C A91U G94A G133C A142U U145A U148A | ≤ -4.2 |
| A41U A120G G143A | -2.06 |
| U4C A19G C76G G86U A89G A106C U134G | ≤ -4.2 |
| C27G A52G G92A | ≤ -4.2 |
| C76G G84A A122G | ≤ -4.2 |
| A39U C76A G83U C125U | ≤ -4.2 |
| U56A G81A C103G A121G A122U | -1.56 |
| C5A A47G C79A G83U G140A U146G | ≤ -4.2 |
| A40G U56A | -1.21 |
| A39C C54A G65C C93A G124U A138C | ≤ -4.2 |
| C14U C96A | -1.59 |
| A41U C76U G88C U130C | ≤ -4.2 |
| A29G C105G U146G | ≤ -4.2 |
| U56G C108A | ≤ -4.2 |
| A39U C93A C105G A113U C114G | ≤ -4.2 |
| C35U G59A G83U A98C G128C | -3.94 |
| A41C A49U U53A A60C G88U A122U U134A | ≤ -4.2 |
| A12G A24G C35A U44G G50C G71C G124A | ≤ -4.2 |
| A23U U77C C87U | ≤ -4.2 |
| A17G G100U | -4.01 |

| Variant | polymerase ribozyme fitness (log ratio) |
| --- | --- |
| A49C A73G A91G C108U A119C C125A | ≤ -4.2 |
| U45A A73G G83C C85U | ≤ -4.2 |
| G67C C87A G100A | ≤ -4.2 |
| G80U U148C | -3.38 |
| C51U C57A G83C A106G | -0.97 |
| C8G A29G A60U U77A C93A C123U | ≤ -4.2 |
| A24C A30C A41U A66U U82C G86U G94U C116A | ≤ -4.2 |
| A17U A21G A22C C38U A66U U82C G100A C125U | ≤ -4.2 |
| G58A C85G C118A G126C | -3.62 |
| A21C G94C C116U | 0.209 |
| A39U A49C A137G | ≤ -4.2 |
| C87A C125U A137U | ≤ -4.2 |
| A16C C32U C72G C75A G86C C87G C99U A107U A120U G124U | ≤ -4.2 |
| A20C C54U G86C U101C U104A | ≤ -4.2 |
| C8U A22U U56A A73G A121G C123U | -4.16 |
| U6C U7G A49G A66C G74A C96G | ≤ -4.2 |
| C18G A37G A66G G68C C93A G128A | ≤ -4.2 |
| A16G A24U A52C C85A C95U | ≤ -4.2 |
| A22C G50A U55G U77C G94A | -4.04 |
| G25C A52C G58C G62U U78G U82C C93A C125G | ≤ -4.2 |
| G34U C96G | -2.91 |
| A16C A113U C118G | -3.27 |
| A22U C114A | -3.29 |
